Data reported in publication PMC6958382, “27th Annual GP2A Medicinal Chemistry Conference” (Pharmaceuticals, 2019).

Molecular target: T1, β2-adrenergic receptor (β2-AR) (Homo sapiens (assumed), UniProt P07550)
T1 construct: β2-adrenoceptor (β2-AR), crystallised in the active state with a catecholamine-type agonist (super-epi or super-iso) and Nb6B9; Conference abstract (poster P20) with no methods; also called ß2-AR
Assay: crystal structure; co-crystal structures of β2-AR with super-epi or super-iso, bound to Nb6B9; active state of the receptor (Figure 17 legend)
Settings: both partners purified

- binding result: binds
B1: Nb6B9 (VHH)
VHH: QVQLQESGGGLVQAGGSLRLSCAASGSIFALNIMGWYRQAPGKQRELVAAIHSGGTTNYANSVKGRFTISRDNAANTVYLQMNSLKPEDTAVYYCNVKDFGAIIYDYDYWGQGTQVTVSS
